{
  "source": "patent US20190111122A1",
  "about": "(ENGINEERED ANTIGENS, published 2019)",
  "target": "T1, biotinylated human transferrin (human, UniProt P02787 20-698, biotinylated (sites not given))",
  "T1 construct": "Used at 0.05-0.1 mg/mL as the labelling reagent; detected with R-phycoerythrin-conjugated streptavidin; also called Sigma-aldrich T3915-5MG",
  "T1 sequence (P02787 20-698 limits assumed)": "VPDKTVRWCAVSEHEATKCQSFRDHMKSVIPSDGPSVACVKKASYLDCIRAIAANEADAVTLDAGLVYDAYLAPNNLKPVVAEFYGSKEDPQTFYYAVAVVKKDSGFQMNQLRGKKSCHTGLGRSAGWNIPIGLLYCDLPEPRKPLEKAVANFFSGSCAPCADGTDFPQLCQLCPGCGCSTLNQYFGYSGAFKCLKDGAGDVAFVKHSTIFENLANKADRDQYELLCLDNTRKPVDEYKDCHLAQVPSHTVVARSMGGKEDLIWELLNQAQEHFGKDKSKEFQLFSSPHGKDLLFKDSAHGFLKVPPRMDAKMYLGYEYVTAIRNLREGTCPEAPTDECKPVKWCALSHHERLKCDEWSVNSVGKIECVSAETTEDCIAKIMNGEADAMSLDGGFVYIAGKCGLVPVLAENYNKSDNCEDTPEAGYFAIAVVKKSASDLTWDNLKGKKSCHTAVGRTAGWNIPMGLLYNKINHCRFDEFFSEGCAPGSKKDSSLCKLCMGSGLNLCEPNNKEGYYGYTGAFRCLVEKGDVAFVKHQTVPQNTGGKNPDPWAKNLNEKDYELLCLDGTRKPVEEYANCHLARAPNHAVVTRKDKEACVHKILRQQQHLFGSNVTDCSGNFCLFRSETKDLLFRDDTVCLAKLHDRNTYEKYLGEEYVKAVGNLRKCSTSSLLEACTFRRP",
  "assay": "flow cytometry, E. coli C43 (DE3) cells expressing Nlobe_HpuA with SLAM1 or SLAM2, labelled with biotinylated human transferrin",
  "data": [
    {"binder": "TbpB N-lobe fused to HpuA (N. meningitidis) (other, also called Nlobe-HpuA) CLGGGGSFDLDSVETVQDMHSKPKYEDEKSQPESQQDVSENSGAAYGFAVKLPRRNAHFNPKYKEKHKPLGSMDWKKLQRGEPNSFSERDELEKKRGSSELIESKWEDGQSRVVGYTNFTYVRSGYVYLNKNNIDIKNNIVLFGPDGYLYYKGKEPSKELPSEKITYKGTWDYVTDAMEKQRFEGLGSAAGGDKSGALSALEEGVLRNQAEASSGHTDFGMTSEFEVDFSDKTIKGTLYRNNRITQNNSENKQIKTTRYTIQATLHGNRFKGKALAADKGATNGSHPFISDSDSLEGGFYGPKGEELAGKFLSNDNKVAAVFGAKQKDKKDAGGGVAEPHVPVSIPTATPLPTGEVKLSDDNSKIENINTADTGSTSGISIQQRKYEVESYGIKREEKAFIFQTPGGAQYALSSYADPITVSYSSPDFKIPDRHAGQRLADGSRIFICCSESGATSYAEITKQDYMKFGAWIGPNGEIDLFAGGFPVGKTPKPKYSWGNTEPETKGKGKITYQVWGIRVRNRQFVTSSYTPPKSGSYYGTLANTPVLSFITANFNSNKLAGEIRGNSDYGPSVKIENATINSLSFSGTATSGGKTGNLEGKFFGKFNGYRDTETSIGGKITFDGDRSLDTVFGGVSYKKELENNTDTSTTHLTK", "values": [
      {"measurement": "binding result", "value": "binds"}
    ]}
  ]
}
